Measured values taken from patent US20060110777A1 (Genentech, published 2006).
Several values for one entry are separate records, joined by “and”; a condition that tells them apart may be missing. Equal values may be shown once. One block for each binder: values may come before it. Positions of bridges follow the written chain, without caps; N, C: chain ends. No end group written: not given here.

Molecular target: T1, BAFF (UniProt Q9Y275 134-285, limits assumed)
T1 construct: Coated on ELISA plates at 2 ug/ml; The construct is not described; also called BLyS; TALL-1
Test: competitive displacement ELISA, BAFF coated, biotinylated miniBR3 as tracer
Protocol: FIGS. 16A-16B depict binding of BR3 variants to BAFF. (A) Competitive displacement of biotinylated miniBR3 measured by ELISA (see methods). Data are shown for BR3 extracellular domain (filled triangles), miniBR3 (open squares), and bhpBR3 (filled circles). IC₅₀ values from the fitted curves are 70 nM, 65 nM, and 15 μM, respectively. (B) HeLa cells expressing a chimeric receptor composed of the extracellular ligand-binding domain of BR3 fused to the death domain of DR4 were seeded 16 hr before treatment. BAFF (2 nM) was added to cells alone or after being preincubated with miniBR3 (3 μM), bhpBR3 (100 μM) or a control hairpin peptide with an unrelated turn sequence in the same bhp scaffold (bhpC, 100 μM) for 30 min at room temperature. Apoptosis was assessed 24 hr later. […]
Nunc Maxisorp 96-well plates were coated overnight at 4° C. with 100 μl of a 2 μg/ml solution of BAFF in carbonate buffer, pH 9.6. […] The reaction was quenched with 100 μl/well 1M H₃PO₄ and the plate read at 490 nm. IC₅₀ values were determined by a four-parameter fit of the competitive displacement ELISA signal. The concentrations of initial stock solutions of bhpBR3 were determined spectrophotometrically as described (Gill and von Hippel, (1989) Anal. Biochem. 182:319-326), while those of miniBR3 and BR3 extracellular domain were determined by quantitative amino acid analysis.

IC50: 65 nM and ~70 nM
B1: miniBR3 (peptide)
peptide: TPCVPAECFDLLVRHCVACGLLRTPR-NH2
modifications: disulfide 3-16, 8-19
notes: Synthetic peptide with the 1:3, 2:4 disulfide-bonding pattern; also called 26-residue miniBR3 peptide; the larger core domain

IC50: 15000 nM
B2: bhpBR3 (peptide)
peptide: CHWDLLVRHWVC-NH2
modifications: disulfide 1-12 (inferred)
notes: BR3 residues 26-31 (DLLVRH) embedded in the disulfide-bonded beta-hairpin (bhp) scaffold; also called the 12-residue peptide; turn peptide bhpBR3
